This passage reports protein stability index results from the supplement of paper PMC10567573.

B1: TMEM192 (parent)
chain: ILGKVILWILHLLLECYIQYHHSK
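Also: lentivirally expressed fusions sorted by FACS into six bins by GFP to DsRed ratio, PSI derived from sequencing read proportions per bin multiplied by bin number.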

In the data set the parent is B1. In words: protein stability index of a GFP-peptide fusion (GPS, HEK-293T) (PSI 1-6); higher = more stable. The conditions noted are these: c terminus: a fixed tail appended.
Consider ILGKVILWMLHLLLECYIQYHHSK [I9M], for which the protein stability index was determined as 2.58.
As for ILGKVILWNLHLLLECYIQYHHSK [I9N], the protein stability index amounted to 4.27.
Turning to ILGKVILWYLHLLLECYIQYHHSK [I9Y], the protein stability index is 2.94.
As for ILGKVILWCLHLLLECYIQYHHSK [I9C], the figure is 2.61.
For the variant ILGKVILWRLHLLLECYIQYHHSK [I9R], the protein stability index amounted to 2.96.
For ILGKVILWELHLLLECYIQYHHSK [I9E] the value was 4.08.
As for ILGKVILWFLHLLLECYIQYHHSK [I9F], the figure is 3.71; as for ILGKVILWGLHLLLECYIQYHHSK [I9G], 1.96; as for ILGKVILWQLHLLLECYIQYHHSK [I9Q], 2.8.
As for ILGKVILWTLHLLLECYIQYHHSK [I9T], the figure is 4.05; as for ILGKVILWDLHLLLECYIQYHHSK [I9D], 2.89; as for ILGKVILWHLHLLLECYIQYHHSK [I9H], 3.16.
As to ILGKVILWWLHLLLECYIQYHHSK [I9W], the protein stability index was 3.09.
Regarding ILGKVILWLLHLLLECYIQYHHSK [I9L], the protein stability index turned out to be 2.68.
For ILGKVILWPLHLLLECYIQYHHSK [I9P] the value was 3.29; for ILGKVILWVLHLLLECYIQYHHSK [I9V], 3.3.
As for ILGKVILWKLHLLLECYIQYHHSK [I9K], the figure is 3.67; as for ILGKVILKILHLLLECYIQYHHSK [W8K], 2.89; as for ILGKVILMILHLLLECYIQYHHSK [W8M], 3.22.
For ILGKVILIILHLLLECYIQYHHSK [W8I] the value was 2.08.
For the variant ILGKVILEILHLLLECYIQYHHSK [W8E], the protein stability index is 2.47.
As for ILGKVILAILHLLLECYIQYHHSK [W8A], the figure is 2.92; as for ILGKVILPILHLLLECYIQYHHSK [W8P], 2.6; as for ILGKVILRILHLLLECYIQYHHSK [W8R], 2.25.
For ILGKVILSILHLLLECYIQYHHSK [W8S] the value was 3.6.
As for ILGKVILYILHLLLECYIQYHHSK [W8Y], the figure is 2.98; as for ILGKVILQILHLLLECYIQYHHSK [W8Q], 2.89.
Consider ILGKVILHILHLLLECYIQYHHSK [W8H], for which the protein stability index was 3.31.
For the variant ILGKVILVILHLLLECYIQYHHSK [W8V], the protein stability index came out at 3.11.
For ILGKVILNILHLLLECYIQYHHSK [W8N] the value was 3.71; for ILGKVILLILHLLLECYIQYHHSK [W8L], 2.26; for ILGKVILTILHLLLECYIQYHHSK [W8T], 3.65.
For ILGKVILFILHLLLECYIQYHHSK [W8F] the value was 3.29.
Consider ILGKVILGILHLLLECYIQYHHSK [W8G], for which the protein stability index amounted to 2.02.
Take ILGKVILDILHLLLECYIQYHHSK [W8D]: the protein stability index worked out at 2.44.
With ILGKVILWILHLLLECGIQYHHSK [Y17G], the protein stability index was 3.49.
For ILGKVILWILHLLLECQIQYHHSK [Y17Q] the value was 2.67.
As for ILGKVILWILHLLLECIIQYHHSK [Y17I], the figure is 3.59; as for ILGKVILWILHLLLECCIQYHHSK [Y17C], 2.8; as for ILGKVILWILHLLLECFIQYHHSK [Y17F], 3.16.
Consider ILGKVILWILHLLLECLIQYHHSK [Y17L], for which the protein stability index was found to be 2.59.
For ILGKVILWILHLLLECAIQYHHSK [Y17A] the value was 2.48; for ILGKVILWILHLLLECMIQYHHSK [Y17M], 2.85; for ILGKVILWILHLLLECKIQYHHSK [Y17K], 2.99.
As for ILGKVILWILHLLLECEIQYHHSK [Y17E], the figure is 3.46; as for ILGKVILWILHLLLECDIQYHHSK [Y17D], 2.2; as for ILGKVILWILHLLLECHIQYHHSK [Y17H], 3.22.
For ILGKVILWILHLLLECPIQYHHSK [Y17P] the value was 3.26.
As for ILGKVILWILHLLLECNIQYHHSK [Y17N], the protein stability index was 3.47.
For ILGKVILWILHLLLECSIQYHHSK [Y17S] the value was 3.71; for ILGKVILWILHLLLECRIQYHHSK [Y17R], 2.2; for ILGKVILWILHLLKECYIQYHHSK [L14K], 2.31.
For ILGKVILWILHLLAECYIQYHHSK [L14A] the value was 2.08.
For ILGKVILWILHLLPECYIQYHHSK [L14P] the value was 3.38.
As for ILGKVILWILHLLCECYIQYHHSK [L14C], the protein stability index came out at 2.25.
As for ILGKVILWILHLLWECYIQYHHSK [L14W], the protein stability index was 1.68.
As for ILGKVILWILHLLVECYIQYHHSK [L14V], the figure is 4.41; as for ILGKVILWILHLLIECYIQYHHSK [L14I], 3.72; as for ILGKVILWILHLLMECYIQYHHSK [L14M], 2.95.
For ILGKVILWILHLLHECYIQYHHSK [L14H] the value was 3.19; for ILGKVILWILHLLYECYIQYHHSK [L14Y], 3.51; for ILGKVILWILHLLDECYIQYHHSK [L14D], 3.16.
Regarding ILGKVILWILHLLGECYIQYHHSK [L14G], the protein stability index turned out to be 3.05.
For ILGKVILWILHLLTECYIQYHHSK [L14T] the value was 3.98; for ILGKVILWILHLLSECYIQYHHSK [L14S], 2.43.
As for ILGKVILWILHLLRECYIQYHHSK [L14R], the figure is 2.71; as for ILGKVILWILHLLEECYIQYHHSK [L14E], 3.72.
For ILGKVILWILHLLQECYIQYHHSK [L14Q] the value was 2.28; for ILGKVILWILHLLFECYIQYHHSK [L14F], 2.75; for ILGKVILWILHLLNECYIQYHHSK [L14N], 3.68.
As for ILGKVYLWILHLLLECYIQYHHSK [I6Y], the protein stability index turned out to be 2.98.
For ILGKVWLWILHLLLECYIQYHHSK [I6W] the value was 2.72.
For ILGKVILWILHLLLKCYIQYHHSK [E15K], the protein stability index was 2.68.
For ILGKVILWILHLLLSCYIQYHHSK [E15S] the value was 2.14; for ILGKVILWILHLLLMCYIQYHHSK [E15M], 2.76.
ILGKVILWILHLLLHCYIQYHHSK [E15H]: the protein stability index stood at 3.19.
For ILGKVILWILHLLLPCYIQYHHSK [E15P] the value was 3.23; for ILGKVILWILHLLLGCYIQYHHSK [E15G], 2.81; for ILGKVILWILHLLLYCYIQYHHSK [E15Y], 2.69.
As for ILGKVILWILHLLLDCYIQYHHSK [E15D], the figure is 2.1; as for ILGKVILWILHLLLQCYIQYHHSK [E15Q], 3.19; as for ILGKVILWILHLLLVCYIQYHHSK [E15V], 3.17.
For ILGKVILWILHLLLNCYIQYHHSK [E15N] the value was 3.35; for ILGKVILWILHLLLCCYIQYHHSK [E15C], 2.82; for ILGKVILWILHLLLTCYIQYHHSK [E15T], 2.4.
With ILGKVILWILHLLLACYIQYHHSK [E15A], the protein stability index amounted to 3.03.
For ILGKVILWILHLLLICYIQYHHSK [E15I] the value was 3.52; for ILGKVILWILHLLLFCYIQYHHSK [E15F], 2.44.
As for ILGKVILWILHLLLLCYIQYHHSK [E15L], the figure is 3.05.
For ILGKVIFWILHLLLECYIQYHHSK [L7F] the value was 2.7.
In the case of ILGKVIMWILHLLLECYIQYHHSK [L7M], the protein stability index is 1.54.
For ILGKVIYWILHLLLECYIQYHHSK [L7Y] the value was 2.85; for ILGKVIIWILHLLLECYIQYHHSK [L7I], 2.24.
For ILGKVICWILHLLLECYIQYHHSK [L7C], the protein stability index was 2.19.
